According to the nanobody polyreactivity screen of Harvey et al. (2022):

Test: yeast display, Sf9 membrane polyspecificity reagent, FACS + sequencing; frameworks hold sequencing errors
In short: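 In a synthetic yeast display library (Saccharomyces cerevisiae BJ5465), nanobody expression was induced with galactose for 36–48 hours. FACS gates were set low and high (top ~1%) using anti-HA fluorescence for expression and streptavidin fluorescence for binding of the Sf9 membrane reagent. Each polyreactivity label is drawn from the gate of origin.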

Sequence	polyreactivity (PSR sort gate)
QFQLVESGGGLVQAGGSLRLSCAASGRTFKYNAMGWYRQAPGKERELVAAISSTGSTNYADSVKGRFTISRDNAKNTVYLQMNSLKPEDTAVYYSAARGLPSNYYYYVHGYIMYYWGQGTQVTVSS	low polyreactivity
QFQLVESGGGLVQAGGSLRLSCAASGRTFQLNAMGWYRQAPGKERELVAAISTRGGSTNYADSVKGRFTISRDNAKNTVYLQMNRLKPEDTAVYYCAKDPSFTRGFKEGGGYDYWGQGSQVTVSS	high polyreactivity
QFQLVESGGGLVQAGGSLRLSCAASGRTFYAYAMGWYRQAHGKARELVAAIRGRTYYADSVKGRFTISSDNAKNTVYLQMNSLKPEDTAVYYCAARWVPREKLMFYWGQGTQVTVSW	high polyreactivity
QFQLVESGGGLVQAGGSLRLSCAASGRTFYQYTMGWYRQAPGKERELVAAITTSTGNTYYADSVKGRFTISRDNAKNTVYLQLNSLKPEDTAVYYCAAEPPTYKLLDYWGQGTQVTVSS	low polyreactivity
QFQLVESGGGLVQAGGSLRLSCAASGRTSLGYDMRWYRQAPGKERELVAAITRSGGYTYYADSVKGRFTISRDNAKNTVYLQMNSLKPEDTAVYYCAAYWRYSGYYYWGQGTQVTVSS	low polyreactivity
QFQLVESGGGLVQAGGSLRLSCAASGSIFDIYAMGWYRPAPGKERELVADITISGGSTYYADSVKGRFTISRDNAKNTVYLQLNSLIPEDTAVYYCAADVTVVLGYKYDYWGQGTQVTVSS	low polyreactivity
QFQLVESGGGLVQAGGSLRLSCAASGSIFFIYAMGWYRQAPGKERELVATITSGGSTYYADSVKGRFTISRDNAKNTVYLQMNSLKPEDTAVYYCAVDEYFAFDYWGQGTQVTVSS	low polyreactivity
QFQLVESGGGLVQAGGSLRLSCAASGSIFVPYAMGWYRQAPGKERELVAAISSSTASTYYADSVKGRFTISRDNAKNTVYLQMNSLKPEDTAVYYCNAEQWDYGVRVAHYDYWGQGTQVTVSS	low polyreactivity
QFQLVESGGGLVQAGGSLRLSCAASGSIFVYNVMGWYRQAPGKERELVAAITYSGGGTYYADSVKGRFTISRDTAKNTVYLQMNSLKPEDTAVYYCAAAYPSVAYSYRYDYWGQGTQVTVSS	high polyreactivity
QFQLVESGGGLVQAGGSLRLSCAASGSIFYRNAMGWYRQAPGKERELVAAISRRGGSTYYADSVKGRFTISRDNAKNTVYLQMNSLKPEDTAVYYCATDGSTSKLVTVAYDYWGQGTQVTVSS	high polyreactivity
QFQLVESGGGLVQAGGSLRLSCAASGSTFGVYALGWYRQAPGKARELVATINSGGSTNYADSVKRRFTSSRDNAKNTVYLQMTSLTPEDTAVYYCAAGPFWQDFYVYEYDYWGQGTQVTVSS	low polyreactivity
QFQLVESGGGLVQAGGSLRLSCAASGSTFNYNAMGWYRQAPGKERELVAAISSSGGSTYYADSVKGRITISRDNAKNTVYLQMNSLKPEDTAVYSCATGGSSRVRTEGDYWGQGTQVTVSS	low polyreactivity
QFQLVESGGGLVQAGGSLRLSCAASGTFYPYAMGWYRQAPGKERELVAGITGSGGYTYFADSVKGRFTISRDNAKNTVYLQMNSLKPEDTAVYYCAKRSWIEYDYWGQGTQVTVSS	low polyreactivity
QFQLVESGGGLVQAGGSLRLSSAASGFIIRYYAMGWYRQAPGKERELVAAISASGGSTYYADSVKGRFTISRDNAKNTVYLQMNSLKPEDTAVYYCAARYWLREDYWGQGTQVTVSS	high polyreactivity
QFQLVESGGGLVQPGGRLRLICAASGHNFPLNAMGWYRQAPGKERELVAAISRTGGSTYYADSVKGRFTISRDNAKFSVYLQMNSLKPEDTALYFCAKRGQACEDYWGEGTQVTVSS	high polyreactivity
QFQLVESGGGLVQSGGSLRLSCAASGLIFVFYAMGWYRQAPGKERELVAAISTSGDRTYYADSVKGRFTISRDNAKNTVYLQMNSLKPEDTAVYYCAAGRRKVPYSREYYYWGQGTQVTVSS	high polyreactivity
QFQLVESGGVLDQAGGSLRLSCAASGSNFTIYAIGWYRQAPGKERELVADISSGGSTYYADSVKGRFTISRDNAKNTVYLQMNSLNPEDTAVYYCAAGVFFFTFVYWGQGTQVTVSS	low polyreactivity
QFQLVESGGVLVQAGGILRLSCAASGSIFIDNAMGWYRQEPGKERDLVAAITVRGASTNYADSVKGRFTISRDNAKNTVYLQMNSLKPEDTAVYYCNAVGLRSPWHQDYLIRYDYWGQGTQVTVSS	low polyreactivity
QFQLVESGRGLVQAGGSLRLSCAASGSIFYAYAMGWYRKAPGKEREFVAVISYSGGSTYYADSVQGRFTISRDKAKNTVYLQMNSLKPEDTAVYYCAARYRAWSGNYWGQGTQVTVSS	high polyreactivity
QFQLVESLGGLDQAGGSLRLSFAASGLIILAYAMVWYRQAPGKERELVAAISRNRGSTYYADSVKGRLTISRDNAKNTVYLQMNSLKPEVTEVYYCNNVSRSSVYLDYYYWGQGTQVTVSS	high polyreactivity
QFQLVESRGGLVQAGGSLRLSCAASGSIFGSNAMGLYRQAPAKERELVAANSGSGGSTNYADSVKGRLTLSRDIAQNTVYLHMNSLKPEDTAVYYCAVPSKATGSASTSYGIFDSWGQGTQVTVSS	low polyreactivity
QFQLVESVGGLVQAGGSLRLSFAASGFNFDYNAMGWYRQAPGKERELVAAISNTGDSTYYADSVKGRFTISRDNAKNTVYLQMNSLQPEDTAVYYCAADSLFDDYWEYDYWGQGTQVTVSS	low polyreactivity

Sequence	polyreactivity (PSR sort gate)
QFQLVETGGGLVQAGGSLRLSCAASGSILGFNAMRWYIQAPGKESELGAAIRWSGDSTYADSVKGLFTMSRDNAKNTVYLQMNSLTQEDPSFYYCNARDTSYANWLSHFYYWGQGTQVTVSW	low polyreactivity
QFQLVETGGGLVQAGGSLRLSSAASGSTFTLYAMGWYRQAPGKERELVATITGSGGSTNYADSVKGRFTISRDNAKNTVYLQMNSLKPEDTAVYYCAADYAVYSFTEFNYWGQGTQVTVSS	high polyreactivity
QFQRGESGGGLVQAGGSLRLSCAASGRLFYSYAMGGYRQAPGKERELVAAINSGDRTYYADSVKGRFTISRDNAKNTVYLQKNSLNPEDPAVYYCATRWFAFPWDEYNYWGQGSQVTVSS	low polyreactivity
QFQRVDSGGGLVQAGGSLRLSCAASGSTLAVNAMGWYRQAHGKERELVAAITRSGGRTYYADSLKWRFTISRDNAKNTVYLQMNSLKPEDTAVYYFGAKWYYPFIPKRTTRYGFDYWGHGTQVTVSS	high polyreactivity
QGHLVESGGGLVQAGGSLRLSCAASGVTFYTYDMGWYRQAPGKERELVAGIDWSGGSTYYADSVNGRFTISRDNAKNTVDLLMNSLKPEYTAVYYCASDYYYASQMDYWGQGTQVTVSS	low polyreactivity
QGLLVESGGGLVQAGGSLRLTCAASGFIFSGYAMGWYRPAPGKERELVAAISWSGSSTYYADSVKGRFTISRDNAKNTVYLQMNSLKPEDTAVYYCAAWYTSTRPYDYWGQGTQVTVSS	high polyreactivity
QGQHVESGGGLVHAGGSLRLSCAASGSIFPYYAMGWYRQRPGKERELVAAITDCGSTNYADSVKGRFTISRDNAKNTVYLQMNSLKPEDTAVYYCNKLAGYYDYDYWGQCTQVTVSS	low polyreactivity
QGQHVESGGGLVQAGGSLRLSCAASGSIFAAYAMGWYRQATGKERELVAPIDRGGSTDYADSVKGRFTISRDNAKNTVFLPMNSLKPEDTAVYYCDKGYDYYVRRYYYWGQGTQVTGSS	high polyreactivity
QGQHVESGGGLVQAGGSLRLSCDASGSTIYQYAMGWYRQAPGKESELVAAISGISGSTSYADSVTGRFTISRDNAKNTVYLQMNSLKPEDTAVYDCAKGTAPIPYRGRVGTSKSDYWGQGTQVTVSS	low polyreactivity
QGQHVESGGGLVQAGGSLRLSSAASGITISYYGMGWYRQERGKDRELVASITKRGGRTYYADSVKGRFTISRDNAKNTVYLQMNSLKPEETAVYYCAADRAAPRYDYWGQGTQVTVSS	high polyreactivity
QGQHVESGGGLVQARGSRRLSCAPSGRTFGYDAMGWYRQAPGKERELVAAINYSGVSTYYADSVKGGFTISRDTAKNTVYLQRNSLKPEDTAGSYCAAKGRYSVYSRNSWGQGTQVTVSS	high polyreactivity
QGQLEESGGGLVQAGGSLRLTCAASGRNLRTYAMGWYRQATGKERELVAAISRGGSTNYADSVKGRFTISRDNAKNTVYLQMHSLKPEDTAVYYCAAGYVRYYSDYVSYVYWGQGTQVTVSS	low polyreactivity
QGQLEESVGGLVQAGGSLRLSCAASGRIFRYYAMGLYRQAPGKERELVAAIRSGGSTNYADSVKGRFTISRDNAKNTVYLQMKSLKPEDTAVYYCNARYRYFKGGYWGQGTQVTVSS	high polyreactivity
QGQLVASGGGLVQAGGSLRLSSAASGSIFWLSTMGWSRQGPGKEREWVAAITGSGSATYYADSVKGRFTISRDYAKNTVYLQMTTLKPEDTADYYCAAYWSSARRRYDYWGQGSQVTVSS	high polyreactivity
QGQLVDSGGGLVQAGGSLRLICAASGYIFRLYAMGWYRHAPGKERELVAAISRRGGSTYYADSVKGRFTISRDNAKITVYLQMNSLKPEDTAVYYGATDHSYIDDYWGQGTQVTVSS	high polyreactivity
QGQLVESGGALVQAGGSLRISCAASGRTISQNSMGLYRPAPGKERELVAAIRRGGSTNYADSVKGRFTISRDNAKNTVFLQMNSLKQEDSAFYYCAGDLRRNGWGFDYWGQGTQVTVSS	high polyreactivity
QGQLVESGGALVQAGGSLRLSCAPSGSTFGVYTMGWYRQAPGKERELVAAITKSGGSTYYADSVKGRFTISRDNAKNTVYLQMNSLKPEDTAVYYCNTDYGSYLYYRYGYWGQGTQVTVSS	low polyreactivity
QGQLVESGGGIVQAGCSLLLSCSASGLIFRRKTLGWYRQAPGTERELVAVISSSGSSTYYADSVKGRFTISRDNAKNTVYLQMNSLKPEDTAVYYCAARYAIGPGYDYWGQGTQVTVSS	high polyreactivity
QGQLVESGGGLGQAGGSLRLSCAASGSTFGDSAMVWYRQAPGKERELVAGISARGGRTYYADSVKGRFTISRDNAKNTVYLQMNSLKPEDTAVYDCNARTGYQDGSYGNDYWGQGTQVTVSS	high polyreactivity
QGQLVESGGGLGQEGGSLRLICAASGNTFDYYVMGWYRQAPGKERELVAVITSGSSTYYADSVKGRFTISRDNAKNTVFFQMNSLQPEDTAVYYCAKTTRRPGLRSYDYWGQGTQVTVSS	high polyreactivity
QGQLVESGGGLVQAGCSLRLSCAASGSNFYYKAMGWYRQAPRKERELVARISRSGGSTYADSVKGRFTISRDNAKNTVYLQMNSLKPEDTAVYYCNADAYGTPEFTPYSVRYDYWGQGTQVTVSS	low polyreactivity
